# According to patent publication US10208087B2, “Peptides” (Hoffmann-La Roche Inc., priority 2014, dated 2019):
# Structures can show the parent of a compound that is named as a salt. Starred links: 1 amine or outer side, 2 acyl side, 3 side chain; linkers in the order of their positions; H or OH if unused. Non-standard residues stand in square brackets, D forms with d. Residues, ends and D or L forms follow the SMILES beside them. No end group written: not given here. *: point of attachment. Elaidic = elaidic acid acyl on Lys side chain, CCCCCCCC/C=C/CCCCCCCC(=O)*; MetSta(3S,4S) = CSCC[C@H](N[*:1])[C@@H](O)CC(=O)[*:2]; Palmitoleoyl = CCCCCC/C=C\CCCCCCCC(=O)*; Sta = CC(C)C[C@H](N)[C@@H](O)CC(=O)O; Palmitoyl = CCCCCCCCCCCCCCCC(=O)*; PEG4 = NCCOCCOCCOCCOCCC(=O)O; PEG3 = NCCOCCOCCOCCC(=O)O; Nle = CCCC[C@H](N)C(=O)O; Palm = palmityl
# Target: T1, BACE1 (Homo sapiens, UniProt P56817)
# T1 construct: Human HEK293 cells which are stably transfected with a vector expressing a cDNA of the human APP wt gene (APP695); endogenous in cells; host or cells: HEK293 cells stably transfected with human APP695 wt
# Assay: Cellular Aβ-lowering Assay
# Assay type: cell-based
# Conditions: Aβ40 in culture supernatant (ELISA) of human HEK293 cells stably expressing human APP wt (APP695); 18-20 hrs incubation
# Protocol: The compounds were investigated in accordance with the test given hereinafter. Cellular Aβ-lowering Assay: Human HEK293 cells which are stably transfected with a vector expressing a cDNA of the human APP wt gene (APP695) were used to assess the potency of the compounds in a cellular assay. […] After blocking of non-specific binding sites with e.g. 1% BSA and washing, the culture supernatants were added in suitable dilutions together with a horseradish peroxidase-coupled Aβ detection antibody (e.g., antibody 4G8, Senetek, Maryland Heights, Mo.) and incubated for 5 to 7 hrs. Subsequently the wells of the microtiter plate were washed extensively with Tris-buffered saline containing 0.05% Tween 20 and the assay was developed with tetramethylbenzidine/H2O2 in citric acid buffer. After stopping the reaction with one volume 1 N H2SO4 the reaction was measured in an ELISA reader at 450 nm wavelength. The concentrations of Aβ in the culture supernatants were calculated from a standard curve obtained with known amounts of pure Aβ peptide.
# T1 sequence (P56817 46-501): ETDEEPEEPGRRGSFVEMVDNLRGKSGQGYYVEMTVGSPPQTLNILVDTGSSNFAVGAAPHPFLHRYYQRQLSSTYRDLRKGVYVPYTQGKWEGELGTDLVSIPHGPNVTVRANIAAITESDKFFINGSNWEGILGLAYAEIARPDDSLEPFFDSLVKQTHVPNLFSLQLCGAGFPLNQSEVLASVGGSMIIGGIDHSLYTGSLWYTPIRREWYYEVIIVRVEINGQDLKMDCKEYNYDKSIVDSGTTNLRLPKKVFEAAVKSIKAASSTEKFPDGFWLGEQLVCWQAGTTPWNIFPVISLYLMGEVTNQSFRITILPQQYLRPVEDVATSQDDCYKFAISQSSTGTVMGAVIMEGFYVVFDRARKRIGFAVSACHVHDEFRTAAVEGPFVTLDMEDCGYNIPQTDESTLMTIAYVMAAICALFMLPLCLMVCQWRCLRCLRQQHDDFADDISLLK
row,Molecule,IC50 [nM]
1,"CCCCCCCCCCCCCCCC(=O)NCCCC[C@H](NC(=O)[C@H](Cc1ccccc1)NC(=O)[C@H](CCC(=O)O)NC(=O)[C@H](C)NC(=O)[C@@H](NC(=O)C[C@H](O)[C@H](CC(C)C)NC(=O)[C@H](CC(N)=O)NC(=O)[C@@H](NC(=O)[C@H](CCC(=O)O)NC(=O)CNC(=O)[C@H](CCCC)NC(=O)CNC(=O)[C@H](CC(C)C)NC(=O)[C@@H]1CCCN1C(=O)[C@@H](NC(=O)[C@H](Cc1ccccc1)NC(=O)[C@H](Cc1ccc(O)cc1)NC(=O)[C@@H]1CCCN1C(=O)[C@@H](N)Cc1ccc(O)cc1)[C@@H](C)CC)C(C)C)C(C)C)C(N)=O [Example 6, Tyr-Pro-Tyr-Phe-Ile-Pro-Leu-Gly-Nle-Gly-Glu-Val-Asn-Sta-Val-Ala-Glu-Phe-Lys(Palmityl)-NH2 x TFA]",120
2,"CCCCCCCCCCCCCCCC(=O)NCCCC[C@H](NC(=O)[C@H](Cc1ccccc1)NC(=O)[C@H](CCC(=O)O)NC(=O)[C@H](C)NC(=O)[C@@H](NC(=O)C[C@H](O)[C@H](CC(C)C)NC(=O)[C@H](CC(N)=O)NC(=O)[C@@H](NC(=O)[C@H](CCC(=O)O)NC(=O)CNC(=O)[C@H](CO)NC(=O)CNC(=O)[C@H](CC(C)C)NC(=O)[C@@H]1CCCN1C(=O)[C@@H](NC(=O)[C@H](Cc1ccccc1)NC(=O)[C@H](Cc1ccc(O)cc1)NC(=O)[C@@H]1CCCN1C(=O)[C@@H](N)Cc1ccc(O)cc1)[C@@H](C)CC)C(C)C)C(C)C)C(N)=O [Example 9, Tyr-Pro-Tyr-Phe-Ile-Pro-Leu-Gly-Ser-Gly-Glu-Val-Asn-Sta-Val-Ala-Glu-Phe-Lys(Palmityl)-NH2 x TFA] (H-YPYFIPLGSGEVN[Sta]VAEFK(Palmitoyl)-NH2; N-terminus assumed)",41
3,"CCCCCCCCCCCCCCCC(=O)NCCCC[C@H](NC(=O)[C@@H](Cc1ccccc1)NC(=O)[C@H](CCC(=O)O)NC(=O)[C@H](C)NC(=O)[C@@H](NC(=O)C[C@H](O)[C@H](CCSC)NC(=O)[C@H](CC(N)=O)NC(=O)[C@@H](NC(=O)[C@H](CCC(=O)O)NC(=O)CCOCCOCCOCCNC(=O)[C@H](CC(C)C)NC(=O)[C@@H]1CCCN1C(=O)[C@@H](NC(=O)[C@H](Cc1ccccc1)NC(=O)[C@H](Cc1ccc(O)cc1)NC(=O)[C@@H]1CCCN1C(=O)[C@@H](N)Cc1ccc(O)cc1)[C@@H](C)CC)C(C)C)C(C)C)C(N)=O [Example 33, Tyr-Pro-Tyr-Phe-Ile-Pro-Leu-(PEG)3-Glu-Val-Asn-MetSta-Val-Ala-Glu-DPhe-Lys(Palm)-NH2 x TFA] (H-YPYFIPL[PEG3]EVN[MetSta(3S,4S)]VAE[dF]K(Palmitoyl)-NH2; N-terminus assumed)",41

# Target: BACE1 (UniProt P56817 46-501, limits assumed)
# Assay: cell-based or functional assay
# Conditions: not given
# BACE1 (UniProt P56817 46-501, limits assumed), sequence (P56817 46-501 limits assumed): as the sequence (P56817 46-501) above
row,Molecule,"IC50, cellular Aβ-lowering assay (Aβ40 in supernatant of HEK293 cells expressing human APP695) [nM]"
1,YPYFIPLGGGEVN[Sta]VAEFK(Palm)-NH2 (also: TFA salt) [YPYFIPL-GGG-EVN-Sta-VAEFK(Palm)-NH2 x TFA],120
2,YPYFIPLGGSEVN[Sta]VAEFK(Palm)-NH2 (also: TFA salt) [YPYFIPL-GGS-EVN-Sta-VAEFK(Palm)-NH2 x TFA],53
3,YPYFIPLGPGEVN[Sta]VAEFK(Palm)-NH2 (also: TFA salt) [YPYFIPL-GPG-EVN-Sta-VAEFK(Palm)-NH2 x TFA],140
4,YPYFIPLG[dK]GEVN[Sta]VAEFK(Palm)-NH2 (also: TFA salt) [YPYFIPL-GkG-EVN-Sta-VAEFK(Palm)-NH2 x TFA],64
5,YPYFIPLG[dP]GEVN[Sta]VAEFK(Palm)-NH2 (also: TFA salt) [YPYFIPL-GpG-EVN-Sta-VAEFK(Palm)-NH2 x TFA],48
6,YPYFIPLAGGEVN[Sta]VAEFK(Palm)-NH2 (also: TFA salt) [YPYFIPL-AGG-EVN-Sta-VAEFK(Palm)-NH2 x TFA],53
7,YPYFIPLG[dA][dK]EVN[Sta]VAEFK(Palm)-NH2 (also: TFA salt) [YPYFIPL-Gak-EVN-Sta-VAEFK(Palm)-NH2 x TFA],98
8,"YPYFIPL[PEG4]EVN[MetSta(3S,4S)]VAE[dF]K(Palm)-NH2 (also: TFA salt) [YPYFIPL-PEG(4)-EVN-MetSta-VAE-DPhe-K(Palm)-NH2 x TFA]",18
9,"YPYFIPL[PEG3]EVN[MetSta(3S,4S)]VAE[dF]K(Palm)-NH2 (also: TFA salt) [YPYFIPL-PEG(3)-EVN-MetSta-VAE-DPhe-K(Palm)-NH2 x TFA]",41
10,YPKFIPLG[dK]GEVN[Sta]VAE[dP]K(Palm)-NH2 (also: 3TFA salt) [YPKFIPL-GkG-EVN-Sta-VAEp-K(Palm)-NH2 x 3TFA],1.37
11,YPKFIPLG[dK]GEVN[Sta]VAE[dP]K(Palmitoleoyl)-NH2 (also: 3TFA salt) [YPKFIPL-GkG-EVN-Sta-VAEp-K(Palmitoleic)-NH2 x 3TFA],19.9
12,YPKFIPLG[dK]GEVN[Sta]VAE[dP]K(Oleic)-NH2 (also: 3TFA salt) [YPKFIPL-GkG-EVN-Sta-VAEp-K(Oleic)-NH2 x 3TFA],6.02
13,YPKFIPLG[dK]GEVN[Sta]VAE[dP]K(Elaidic)-NH2 (also: 3TFA salt) [YPKFIPL-GkG-EVN-Sta-VAEp-K(Elaidic)-NH2 x 3TFA],3.02
14,YPKFIPLG[dK]GEVN[Sta]VAE[dP]K(Vaccenic)-NH2 (also: 3TFA salt) [YPKFIPL-GkG-EVN-Sta-VAEp-K(Vaccenic)-NH2 x 3TFA],2.68
15,YPKFIPLG[dK]GEVN[Sta]VAE[dP]K(Erucic)-NH2 (also: 3TFA salt) [YPKFIPL-GkG-EVN-Sta-VAEp-K(Erucic)-NH2 x 3TFA],1.15
16,YPKFIPLG[dK]GEVN[Sta]VAE[dP]K(Myristoleic)-NH2 (also: 3TFA salt) [YPKFIPL-GkG-EVN-Sta-VAEp-K(Myristoleic)-NH2 x 3TFA],208
17,YPYFIPLG[Nle]GEVN[Sta]VAEFK(Palm)-NH2 (also: TFA salt) [YPYFIPL-G-Nle-G-EVN-Sta-VAEFK(Palm)-NH2 x TFA],120
18,YPYFIPLGSGEVN[Sta]VAEFK(Palm)-NH2 (also: TFA salt) [YPYFIPL-GSG-EVN-Sta-VAEFK(Palm)-NH2 x TFA],41
